Reference: US7527943B2, “Compositions of orthogonal glutamyl-tRNA and aminoacyl-tRNA synthetase pairs and uses thereof” (The Scripps Research Institute, priority 2003, dated 2009)

B1: MmERS: glutamyl-tRNA synthetase from M. mazei (protein, listed as Methanosarcina mazeii)
chain: MTLSPEDIKIIEKYALQNAVKYGKAPQPKAVMGKVMGECPQLRADPSGVSAALENIVSEIAKGNPEAWEARLSEIAPELIEALSVKKEPDKGLKPLEGAETGKVVMRFAPNPNGPATLGSSRGMVVNSEYVKVYKGKFILRFDDTDPDIKRPMLEAYDWYMDDFKWLGVVPDQVVRASDRFPIYYDYARKLIEMGKAYVCFCKGEDFKRLKDSKKACPHRDTDPEENLMHWEKMLAGEYEDQQAVLRIKTDIEHKDPALRDWGAFRIRKMSHPRPEIGNKYIVWPLLDFAGAIEDHELGMTHIIRGKDLIDSEKRQTYIYKYFGWTYPKTTHWGRVKIHEFGKFSTSTLRKAIESGEYSGWDDPRLPTIRAIRRRGIRAEALKKFMIEMGVGMTDVSISMESLYAENRKIVDPVANRYFFVWNPVELEIEGMKPVVAKVPRHPTDHARGMREISIENKVLVCAEDIEKLNVGSVLRLKDLCNVEITSLSPLRVKRSETSLEDLKKAKGKIIHWVPVDGIPVKVCGPEGDIEGTGERGIETELDNIVQFERFGFCRIDAVDGENVVAYFAHK
B2: AfERS: glutamyl-tRNA synthetase from A. fulgidus (protein, listed as Archaeoglobus fulgidus)
chain: VKEVIMKYVVQNAAKYGKASEKAVMGKVMAENPELRKKAKEVLELVKECITEFEALSEEVRKELIKKYSMDSEAKRELETKKLPELEGAEKGKVVMRFAPNPNGPPTLGSARGIIVNGEYAKMYEGKYIIRFDDTDPRTKRPMIEAYEWYLEDIEWLGYKPDEVIYASRRIPIYYDYARKLIEMGKAYTCFCSQEEFKKFRDSGEECPHRNISVEDTLEVWERMLEGDYEEGEVVLRIKTDMRHKDPAIRDWVAFRIIKESHPLVGDKYVVYPTLDFESAIEDHLLGITHIIRGKDLIDSERRQRYIYEYFGWIYPITKHWGRVKIFEFGKLSTSSIKKDIERGKYEGWDDPRLPTLRAFRRRGFEPEAIKSFFLSLGVGENDVSVSLKNLYAENRKIIDRKANRYFFIWGPVKIEIVNLPEKKEVELPLNPHTGEKRRLKGERTIYVTKDDFERLKGQVVRLKDFCNVLLDEKAEFMGFELEGVKKGKNIIHWLPESEAIKGKVIGEREAEGLVERNAVRDVGKVVQFERFAFCKVESADEELVAVYTHP
B3: AE(GC): archaeal glutamyl consensus-derived amber suppressor tRNA, GC base pair at position 10-28 (nucleic acid)
chain: GCCCCGGUGGUGUAGCCCGGCCAAGCACGCGGGCCUCUAAAGCCCGCGACCCGGGUUCAAAUCCCGGCCGGGGCACCA
modifications: chemistry not fully specified
B4: MtERS: glutamyl-tRNA synthetase from M. thermoautotrophicum (protein, listed as Methanobacterium thermoautotrophicum)
chain: VVPVEDLVYRYALLNAVKHRGRANPGAVMGAVMSNEPELRKMAPQVKEAVEAAVERVNSLSPEEQQQEMERLGLEITERKQKKRKGLRELAGVKGEVVLRFAPNPSGPLHIGHARAAILNHEYARKYDGRLILRIEDTDPRRVDPEAYDMIPADLEWLGVEWDETVIQSDRMETYYEYTEKLIERGGAYVCTCRPEEFRELKNRGEACHCRSLGFRENLQRWREMFEMKEGSAVVRVKTDLNHPNPAIRDWVSMRIVEAEHPRTGTRYRVYPMMNFSVAVDDHLLGVTHVLRGKDHLANREKQEYLYRHLGWEPPEFIHYGRLKMDDVALSTSGAREGILRGEYSGWDDPRLGTLRAIARRGIRPEAIRKLMVEIGVKIADSTMSWKKIYGLNRSILEEEARRYFFAADPVKLEVVGLPGPVRVERPLHPDHPEIGNRVLELRGEVYLPGDDLGEGPLRLIDAVNVIYSGGELRYHSEGIEEARELGASMIHWVPAESALEAEVIMPDASRVRGVIEADASELEVDDVVQLERFGFARLDSAGPGMVFYYAHK
B5: PhERS: glutamyl-tRNA synthetase from P. horikoshii (protein, listed as Pyrococcus horikoshii)
chain: MDVEKIALKHALINAIEHGGKANLKAVIGKVLGENPELRPRAKEIIPIINKVVEEVNSLARDEQLEKLKDIYPEYFEKKEEKKEKKGLPLLPKAEKGKVVTRFAPNPDGAFHLGNARAAILSYEYAKMYGGKFILRFDDTDPKVKRPEPIFYKMIIEDLEWLGIKPDEIVYASDRLEIYYKYAEELIKMGKAYVCTCPPEKFRELRDKGIPCPHRDEPVEVQLERWKKMLNGEYKEGEAVVRIKTDLNHPNPAVRDWPALRIIDNPNHPRTGNKYRVWPLYNFASAIDDHELGVTHIFRGQEHAENETRQRYIYEYFGWEYPVTIHHGRLSIEGVVLSKSKTRKGIEEGKYLGWDDPRLGTIRALRRRGILPEAIKELIIEVGLKKSDATISWENLAAINRKLVDPIANRYFFVADPIPMEVEGAPEFIAEIPLHPDHPERGVRRLKFTPERPVYVSKDDLNLLKPGNFVRLKDLFNVEILEVGDKIRARFYSFEYEIAKKNRWKMVHWVTEGRPCEVIIPEGDELVVRKGLLEKDAKVQVNEIVQFERFGFVRIDRIEGDKVIAIYAHK
B6: EcERS: E. coli glutamyl-tRNA synthetase, used as a control (protein, UniProt P04805 1-471, looked up)
Glutamate--tRNA ligase: MKIKTRFAPSPTGYLHVGGARTALYSWLFARNHGGEFVLRIEDTDLERSTPEAIEAIMDGMNWLSLEWDEGPYYQTKRFDRYNAVIDQMLEEGTAYKCYCSKERLEALREEQMAKGEKPRYDGRCRHSHEHHADDEPCVVRFANPQEGSVVFDDQIRGPIEFSNQELDDLIIRRTDGSPTYNFCVVVDDWDMEITHVIRGEDHINNTPRQINILKALKAPVPVYAHVSMINGDDGKKLSKRHGAVSVMQYRDDGYLPEALLNYLVRLGWSHGDQEIFTREEMIKYFTLNAVSKSASAFNTDKLLWLNHHYINALPPEYVATHLQWHIEQENIDTRNGPQLADLVKLLGERCKTLKEMAQSCRYFYEDFAEFDADAAKKHLRPVARQPLEVVRDKLAAITDWTAENVHHAIQATADELEVGMGKVGMPLRVAVTGAGQSPALDVTVHAIGKTRSIERINKALDFIAERENQQ

Legend:
[1] = tested on: whole tRNA derived from E. coli expressing the AE(GC) tRNA; assay: in vitro aminoacylation assay with whole tRNA from E. coli expressing AE(GC) tRNA; format: biochemical
Description: (§1) In vitro aminoacylation assays: Reactions were carried out as described previously (see, e.g., Hoben, P. and Soll, D. (1985) Glutaminyl-tRNA synthetase of Escherichia coli. Methods Enzymol., 113:55-59). Each 20-μL reaction contained 50 mM Tris-HCl (pH 7.5), 30 mM KCl, 20 mM MgCl2, 0.1 mg/mL BSA, 5 mM glutathione, 2.5 mM ATP, 100 nM 1-[G-^3H]Glutamic acid (Amersham), 750 nM aminoacyl-tRNA synthetase, and 40 μM whole halobacterial tRNA. Reactions were allowed to proceed for 15 minutes at 37° C.
(§2) Orthogonality of archaeal glutamyl-tRNA synthetases in E. coli: The ampicillin IC50 measurements described above provide insights into the orthogonality of consensus-designed tRNAs, but provide no information about the orthogonality of archaeal glutamyl-tRNA synthetases in E. coli. To investigate synthetase orthogonality, the AfERS, MnERS, MtERS, and PhERS genes were inserted into a protein overexpression vector. E. coli glutamyl-tRNA synthetase (EcERS) was inserted into the same vector for use as a control. Synthetases were overexpressed in E. coli, purified to homogeneity, and used in an in vitro aminoacylation assay with whole tRNA prepared from either E. coli or the halophilic archaebacterium Halobacterium sp. NRC-1. […] In these experiments, it is unclear why AfERS and MmERS could not aminoacylate whole halobacterial tRNA in vitro (≦5 pmol/L). […]

[2] = tested on: β-lactamase reporter gene containing an amber mutation at the permissive site Ala184; format: cell-based, E. coli; details: for ampicillin IC50 fold greater with AE(GC) tRNA than with AE(GU) tRNA: same synthetase co-expressed
Description: Ampicillin IC50 value measurements: To examine the orthogonality of tRNAs, 10 μL of E. coli DH10B cells (1 cfu/μL) carrying a tRNA-expressing plasmid were plated on a series of LB agar plates containing chloramphenicol and varying concentrations of ampicillin. To measure the IC50 values for cells carrying both tRNA- and synthetase-expressing plasmids, cells were plated on LB agar plates containing chloramphenicol, kanamycin, and varying concentrations of ampicillin. In the initial series, cells were plated on five ampicillin concentrations varying from 0 to 1000 μg/mL and incubated overnight at 37° C. In subsequent series, cells were plated on a narrower ampicillin concentration range surrounding the value initial ampicillin IC50 value estimate. […] Measurements were made in duplicate or triplicate for each cell strain.
Orthogonality of tRNAs: To test the activity and cross-reactivity of the AE(GU), AQ(GU), and AQ(GC) tRNAs, their genes were inserted into plasmid pACKO-A184TAG. E. coli cells were transformed with the resulting plasmids, pAC-AE(GU), pAC-AQ(GU), and pAC-AQ(GC), and the ampicillin IC50 values for the cells were assayed. The tRNA-expressing pAC-based plasmids carry a β-lactamase reporter gene containing an amber mutation at the permissive site Ala184, which serves as a useful reporter for amber codon suppression. Acylation of an amber suppressor tRNA causes the incorporation of the activated amino acid at position 184 of β-lactamase, resulting in suppression of the amber stop codon, production of active full-length β-lactamase and resistance to ampicillin. Because an orthogonal tRNA should not cross-react with endogenous aminoacyl-tRNA synthetases, strains transformed with an orthogonal suppressor tRNA alone should survive only on low concentrations of ampicillin. To assess the orthogonality of designed tRNAs, E. coli transformants were plated on LB agar plates containing varying concentrations of ampicillin (FIG. 2).

whole halobacterial tRNA = assay: in vitro aminoacylation assay with [3H]-glutamic acid, whole halobacterial tRNA; format: biochemical, Halobacterium sp. NRC-1; details: 750 nM synthetase, 15 minutes at 37° C.
Description: as §1
Orthogonality of archaeal glutamyl-tRNA synthetases in E. coli: The ampicillin IC50 measurements described above provide insights into the orthogonality of consensus-designed tRNAs, but provide no information about the orthogonality of archaeal glutamyl-tRNA synthetases in E. coli. To investigate synthetase orthogonality, the AfERS, MnERS, MtERS, and PhERS genes were inserted into a protein overexpression vector. E. coli glutamyl-tRNA synthetase (EcERS) was inserted into the same vector for use as a control. Synthetases were overexpressed in E. coli, purified to homogeneity, and used in an in vitro aminoacylation assay with whole tRNA prepared from either E. coli or the halophilic archaebacterium Halobacterium sp. NRC-1. […] In these experiments, it is unclear why AfERS and MmERS could not aminoacylate whole halobacterial tRNA in vitro (≦5 pmol/L). Without being limited to one theory, it is possible that the enzyme purification and/or assay conditions employed were deleterious to the aminoacylation activity of AfERS and MmERS. Another possibility is that subtle differences in tRNA identity elements might preclude recognition of a given archaeal tRNA^Glu by all archaeal glutamyl-tRNA synthetases. To test the latter, the activity of MmERS was investigated using the in vitro aminoacylation assay with whole tRNA derived from E. coli expressing the AE(GC) tRNA.

whole E. coli tRNA = assay: in vitro aminoacylation assay with [3H]-glutamic acid, whole E. coli tRNA; format: biochemical; details: 750 nM synthetase, 15 minutes at 37° C.
Description: as §1, §2

[3] = synthetase co-expressed with AE(GU) tRNA

| Molecule | ampicillin IC50 fold greater with AE(GC) tRNA than with AE(GU) tRNA [2] [fold] | ampicillin IC50 fold higher than cells expressing AE(GU) alone [2, 3] [fold] | aminoacylation of whole archaeal (halobacterial) tRNA with [3H]-glutamic acid (whole halobacterial tRNA) [pmol/L] | other results |
| --- | --- | --- | --- | --- |
| B1 | 4.5 | 20 |  | aminoacylation activity [1]: no activity was observed; ampicillin IC50 fold lower than M. jannaschii-derived tyrosine pair [2, 3]: 4.5 fold; ampicillin IC50 fold lower than M. thermoautotrophicum-derived leucine pair [2, 3]: 10 fold |
| B2 |  | 7 |  |  |
| B3 |  |  |  | ampicillin IC50 fold increase relative to cells expressing AE(GU) tRNA alone ([2]; tRNA alone, no synthetase): 4 fold |
| B4 |  | 6 | 530 |  |
| B5 | ~3.5 | 12 | 1100 | amber suppression efficiency fold less than that of the tyrosyl-tRNA synthetase ([2]; together with the AE(GC) tRNA in E. coli): ~2 fold |
| B6 |  |  | 1.7 | aminoacylation of whole E. coli tRNA with [3H]-glutamic acid (whole E. coli tRNA): 14,000 pmol/L |
